Data from article PMC6411837.

Assays:
[1] = target: ternary complex (TC) of WT eIF2, GDPNP and Met-tRNAi, P20459;P09064;P32481; experiment: TC dissociation kinetics, EMSA
[2] = tested on: eIF2 (WT), GDPNP-bound;eIF1-Q31A/F108A;eIF1A (WT);40S ribosomal subunit (Saccharomyces cerevisiae (yeast);Saccharomyces cerevisiae (yeast);Saccharomyces cerevisiae? (yeast);Saccharomyces cerevisiae (strain YAS2488)); experiment: EMSA kinetics; conditions: aminoacylated with Met, 30 mM HEPES-KOH pH 7.4, 100 mM potassium acetate, 3 mM magnesium acetate, 2 mM DTT, 26 C, native gel shift
[3] = tested on: eIF2 with eIF2beta-F217A/Q221A;eIF1 (WT);eIF1A (WT);40S ribosomal subunit (Saccharomyces cerevisiae (yeast);Saccharomyces cerevisiae (yeast);Saccharomyces cerevisiae? (yeast);Saccharomyces cerevisiae (strain YAS2488)); experiment: EMSA kinetics; conditions: aminoacylated with Met; 30 mM HEPES-KOH pH 7.4, 100 mM potassium acetate, 3 mM magnesium acetate, 2 mM DTT, 26 C; GDPNP; native gel shift
[4] = tested on: eIF2 with eIF2beta-E189R;eIF1 (WT);eIF1A (WT);40S ribosomal subunit (Saccharomyces cerevisiae (yeast);Saccharomyces cerevisiae (yeast);Saccharomyces cerevisiae? (yeast);Saccharomyces cerevisiae (strain YAS2488)); experiment: EMSA kinetics; conditions: aminoacylated with Met; 30 mM HEPES-KOH pH 7.4, 100 mM potassium acetate, 3 mM magnesium acetate, 2 mM DTT, 26 C; GDPNP; native gel shift
[5] = target: 40S·eIF1·eIF1A·mRNA complex with WT eIF1, P32911;P38912; experiment: TC binding kinetics (kobs versus [40S], as in Figure 6A–C); conditions: three independent experiments

40S·eIF1·eIF1A·mRNA complex with WT eIF1 (from UniProt P32911;P38912) eIF1:F108D
koff ([1]; mRNA(AUG), n = 3 (WT n = 5)): 5e-05 s⁻¹ | koff ([1]; mRNA(UUG), n = 3 (WT n = 5)): 7.5e-05 s⁻¹

40S·eIF1·eIF1A·mRNA complex with WT eIF1 (from UniProt P32911;P38912) eIF1:Q31E
koff ([1]; mRNA(UUG), n = 4 (WT n = 5)): 3.33e-05 s⁻¹

Met-tRNAi on 40S with mRNA(AUG)
binding signal (fold decrease in kon vs WT eIF1) [2]: 2 | binding signal (fold decrease in kon vs WT eIF2) [3]: 1.5

Met-tRNAi on 40S with mRNA(UUG)
binding signal (fold decrease in koff vs WT eIF2) [4]: 2 | binding signal (fold decrease in kon vs WT eIF2) [3]: 1.5

ternary complex (TC) of WT eIF2, GDPNP and Met-tRNAi (from UniProt P20459;P09064;P32481) eIF2β:S202A; eIF2β:K214A
kon ([5]; mRNA(AUG)): 4.11 s⁻¹ | kon ([5]; mRNA(UUG)): 2.76 s⁻¹
